Measurements published in patent US20260217818A1 (Y BIOLOGICS, published 2026).

How the values were obtained:
[1] = molecular target: T1, human CLDN18.1 protein (EUPROTEIN, #EPY255141), coated antigen (human, UniProt P56856 1-261, limits assumed); assay: ELISA, CLDN18.1 coated at 1 µg/mL, serially diluted antibody
T1 construct: Bought antigen; also called CLDN18.1 antigen
T1 sequence (looked up): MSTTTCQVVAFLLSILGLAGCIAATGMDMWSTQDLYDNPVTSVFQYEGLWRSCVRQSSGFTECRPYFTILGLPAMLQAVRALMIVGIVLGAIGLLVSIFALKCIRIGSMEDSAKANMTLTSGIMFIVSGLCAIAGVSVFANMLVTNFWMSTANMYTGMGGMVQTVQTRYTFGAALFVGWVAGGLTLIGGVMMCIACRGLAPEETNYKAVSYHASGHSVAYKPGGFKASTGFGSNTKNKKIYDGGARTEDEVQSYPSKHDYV
Procedure: (§1) CLDN18.1 (EUPROTEIN, #EPY255141) and CLDN18.2 (CUSABIO, #CSB-MP005498HU (A5)) proteins were each prepared at a concentration of 1 μg/mL using a dilution buffer (4% skim milk/0.05% tween-20/PBS), and 100 μL of each was added to individual wells of an immunoassay plate (Thermo, #439454) and incubated statically at 4° C. for more than 16 hours. After three washes with 300 μL of wash buffer (0.05% tween-20/PBS), 200 μL of blocking buffer (4% skim milk/0.05% tween-20/PBS) was added to the wells and incubated for 1 hour at room temperature. After three washes, 100 μL of the anti-CLDN18.2 antibodies, each prepared by serial dilution, was added to each well and incubated at room temperature for 1 hour with rocking. After three washes, 100 μL of anti-human kappa-HRP (Sigma, #A7164) antibody, prepared at dilution ratio of 1:3,000, was added to each well and incubated at room temperature for 1 hour. After three washes, 100 μL of TMB substrate (Sigma, #T0440) was added to each well and incubated in the dark at room temperature, and when color development was observed, 50 μL of stop solution (1N H₂SO₄) was added to stop the reaction. Absorbance was measured using a microplate reader (Promega, GM3000).

[2] = molecular target: T2, human claudin-18.2 (claudin-18 spliced variant 2, CLDN18.2) overexpressed on HEK293E/18.2 or CHO-K1/18.2 cells (human, UniProt P56856 1-261); assay: cell-based or functional assay
T2 sequence: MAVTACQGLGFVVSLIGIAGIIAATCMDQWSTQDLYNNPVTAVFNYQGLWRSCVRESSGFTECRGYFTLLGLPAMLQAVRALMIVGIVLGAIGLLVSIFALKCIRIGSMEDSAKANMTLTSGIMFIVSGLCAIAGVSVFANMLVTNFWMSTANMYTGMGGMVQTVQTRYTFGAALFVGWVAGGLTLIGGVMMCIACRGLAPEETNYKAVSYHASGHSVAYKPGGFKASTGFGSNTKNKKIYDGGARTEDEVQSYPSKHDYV

[3] = molecular target: T2, human claudin-18.2 (claudin-18 spliced …); assay: cell-based or functional assay; remark: listed apart in the source
[4] = molecular target: T3, human CLDN18.2 protein (CUSABIO, #CSB-MP005498HU (A5)), coated antigen (human, UniProt P56856 1-261); assay: ELISA, CLDN18.2 coated at 1 µg/mL, serially diluted antibody
T3 construct: also called CLDN18.2 antigen; CLDN18.2-VLPs antigen
T3 sequence: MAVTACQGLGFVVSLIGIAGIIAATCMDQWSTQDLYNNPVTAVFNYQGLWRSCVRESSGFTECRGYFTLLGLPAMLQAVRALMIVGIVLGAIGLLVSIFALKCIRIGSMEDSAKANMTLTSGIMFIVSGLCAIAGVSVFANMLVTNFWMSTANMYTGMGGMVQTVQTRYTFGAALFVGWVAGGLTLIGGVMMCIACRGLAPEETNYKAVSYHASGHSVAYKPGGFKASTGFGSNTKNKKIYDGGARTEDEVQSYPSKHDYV
Procedure: as §1

B1: 0058-001 (antibody, V domains shown)
VH: QVQLVESGGGLVQPGGSLRLSCAASGFTFSSYAMSWVRQAPGKGLEWVAAISGSGGSTYFADSVRGRFTISRDNPQSTLYLQMNSLRAEDTAVYYCAKEGVWWLRYFDHWGQGTPITVSS
VL: QSALTQPRSVSGSPGQSVTISCTGTSNDVGGYTYVSWYQQHPGKAPKLMIYDVSKRPSGVPDRFSGSKSGNTASLTISGLQAEDEADYYCSSYAGSYTWVFGGGTKLTVL
notes: scFv clone from a human phage library, converted into IgG form for the experiments; also called anti-CLDN18.2 antibody 0058-001; monoclone 0058-001
binding result [1]: no binding
Cell viability (%) at 10 nM, HEK293E/18.2 (Fab-ZAP assay) [2]: 76%
IC50 (nM), HEK293E/18.2 (Fab-ZAP assay) [2]: 0.1 nM
cellular internalization (IncuCyte FabFluor, HEK293E/18.2 cells) [3]: 50%
binding result [4]: binds

B2: 0058-002 (antibody, V domains shown)
VH: QMQLVESGGGLVQPGGSLRLSCAASGFTFSSYAMSWVRQAPGKGLEWVSAISGSGGSTYYADSVKGRFTISRDNSKNTLYLQMNSLRAEDTAVYYCARGLGYYYYGMDVWGQGTTVTVSS
VL: DIQMTQSPSSLSASVGDRVTITCRASQTVSSWLAWYQQKPGKAPKLLIYAASSLQSGVPSRFSGSGSGTEFTLTISSLQPEDFGTYYCQQYHSFPPTFGGGTKVGIK
notes: scFv clone from a human phage library, converted into IgG form for the experiments; also called anti-CLDN18.2 antibody 0058-002; monoclone 0058-002
binding result [1]: no binding
Cell viability (%) at 10 nM, HEK293E/18.2 (Fab-ZAP assay) [2]: 58%
IC50 (nM), HEK293E/18.2 (Fab-ZAP assay) [2]: 0.04 nM
cellular internalization (IncuCyte FabFluor, HEK293E/18.2 cells) [3]: 50%
binding result [4]: binds

B3: 0058-003 (antibody, V domains shown)
VH: QVQLVQSGGGLVQPGGSLRLSCAASGFTFSSYAMSWVRQAPGKGLEWVSAISGSGGSTYYADSVKGRFTISRDNSKNTLYLQMNSLRAEDTAVYYCARGAASSYYFDYWGLGTTVTVSS
VL: DIQMTQSPSSLAAYVGDTVTITCRASAGVRNYLAWVQQKPGKAPRSLIYGAFKLQSGVPSRFSGSGSGTEFTLTISSLQPEDFGTYYCQQYHSFPPTFGGGTKVDIK
notes: scFv clone from a human phage library, converted into IgG form for the experiments; also called anti-CLDN18.2 antibody 0058-003; monoclone 0058-003
binding result [1]: no binding
Cell viability (%) at 10 nM, HEK293E/18.2 (Fab-ZAP assay) [2]: 56%
IC50 (nM), HEK293E/18.2 (Fab-ZAP assay) [2]: 0.04 nM
cellular internalization (IncuCyte FabFluor, HEK293E/18.2 cells) [3]: 50%
binding result [4]: binds
